Reference: paper PMC5827136

Target: Histone H4 (UniProt P62805)
Assay: SPR

## protein SIC (Streptococcal Inhibitor of Complement) (natural protein)
  Kd: 17.6 nM
  koff: 0.000591 s⁻¹
  kon: 33500 M⁻¹ s⁻¹
